These results are taken from paper PMC6315623.

To fix the notation:
B1: unnamed (parent)
chain 1: PHLSRQPEQPEQRALGPVSMPNLVPEVIDLTCHEAGFPPSDDEDEEG
chain 2: MPQPIEKVSVSTQTKKLSASSPRMLHRSTQTTNDGVCQSMCHDKYTKIFNDFKDRMKSDHKRETERVVREALEKLRSEMEEEKRQAVNKAVANMQGEMDRKCKQVKEKCKEEFVEEIKKLATQHKQLISQTKKKQWCYNCEEEAMYHCCWNTSYCSIKCQQEHWHAEHKRTCRRKR

Variants of B1 are the subject of this assay. In words: yeast two-hybrid (β-galactosidase activity). Conditions: with partner chain of the complex shown; n = 3; parent: 100; read off a plot.
For chain 1 PHLSRQPEQPEQRALGPVSMPNLAPEVIDLTCHEAGFPPSDDEDEEG, the percent of parent turned out to be 100%. With chain 1 PHLSRQPEQPEQRALGPVSMPNLVPEVADLTCHEAGFPPSDDEDEEG, the percent of parent was found to be 140%. The result for chain 1 PHLSRQPEQPEQRALGPVSAPNLVPEVIDLTCHEAGFPPSDDEDEEG reads 160%; that for chain 1 PHLSRQPEQPEQRALGPVSMPNLVPEAIDLTCHEAGFPPSDDEDEEG, 130%.

As to chain 1 PHLSRQPEQPEQRALGPVSMPNLVPAVIDLTCHEAGFPPSDDEDEEG, the percent of parent stood at 150%.

For chain 1 PHLSRQPEQPEQRALGPVAMPNLVPEVIDLTCHEAGFPPSDDEDEEG, the percent of parent was determined as 89%. The result for chain 1 PHLSRQPEQPEQRALGPVSMPALVPEVIDLTCHEAGFPPSDDEDEEG reads 100%; that for chain 1 PHLSRQPEQPEQRALGPVSMPNLVAEVIDLTCHEAGFPPSDDEDEEG, 180%.
